Laboratory results reported in paper PMC10128030, “Molecular Characterization of the ClpC AAA+ ATPase in the Biology of Chlamydia trachomatis” (mBio, 2023).
“And” between values parts separate entries of the source, which are not always exact repeats. Equal entries are not always repeated.

Molecular target: the molecule itself
Assay: cross-linking; HeLa cells infected with C. trachomatis L2 (wild type or transformants induced at 16 hpi) treated with 0.25 mM DSS in HBSS pH 7.6 on ice at 4°C for at least 1 h; whole-cell lysates on 8% SDS-PAGE, immunoblot with anti-ClpC (endogenous) or anti-6×His (ectopic)

B1: endogenous ClpC of wild-type C. trachomatis serovar L2 (natural protein)
chain: not shown
notes: ClpC AAA+ ATPase of Chlamydia trachomatis serovar L2; monomer of the expected size 95 kDa; source: endogenous, wild-type Ctr L2 in infected HeLa cells, whole-cell lysate
  stoichiometry N: 2 and 6
